The target in this assay is T1, full length human CD154 on stably transfected mouse fibroblasts (human, UniProt P29965 1-261).
T1 construct: whole, on cells; also called membrane CD154; hCD154
T1 sequence (looked up): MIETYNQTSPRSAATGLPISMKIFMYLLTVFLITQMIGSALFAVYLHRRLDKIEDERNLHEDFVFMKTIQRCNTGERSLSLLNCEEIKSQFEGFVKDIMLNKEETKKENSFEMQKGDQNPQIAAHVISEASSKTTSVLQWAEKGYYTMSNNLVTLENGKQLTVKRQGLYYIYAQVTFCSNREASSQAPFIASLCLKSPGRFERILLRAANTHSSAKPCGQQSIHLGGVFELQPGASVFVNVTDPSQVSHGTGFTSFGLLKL
Nature of the assay: flow cytometry on mouse fibroblasts transfected with human CD154, detected with PE-EA-5. How it is done:
10⁶ mouse fibroblasts (stably transfected with full length human CD154) were incubated with CD40 NJ1 (FIGS. 7-8) or CD40 NJ3 variants (FIGS. 9-11). All the proteins were incubated at a concentration of 1-50 μg/ml at 4° C. for 60 min in total volume of 100 μl (0.5×10^6 cells). […] Analysis was performed using BD FACsCalibur. A known CD40 soluble variant was used (in the form of a FC tagged protein) as a positive control for detecting binding to CD154 (U.S. patent application No. 60/547,422, hereby incorporated by reference as if fully set forth herein) (FIG. 17-18).
Briefly, the FACS protocol was as follows. Mouse fibroblasts were trypsinized, and washed twice in PBS; cells were centrifuged at 1500 rpm for 10 min between washes. Next, the cells were re-suspended in FACS buffer (0.2% BSA and 0.02% sodium azide diluted 1/10 in PBS) to give 5-10×10⁶ cells mL. Cells were placed in FACS test-tubes at a volume of 100 or 200 microliters per tube.
Next, 2 μL (1:50) […] non-blocking antibody (EA-5 mouse IgG1 PE-conjugated, obtained from Calbiochem) or controls (same isotype PE conjugated) were added to the tubes, and incubated for 30 min at 4° C. The process of washing was then repeated with 5 mL PBS. Next, 0.5 mL PBS was added to tubes, which were read in a FACS machine (BD FACSCalibur).
(In general: Flow cytometry measures light scatter and fluorescence of single cells or particles in a stream.)

B1: CD40 NJ1 splice variant (receptor)
chain: EPPTACREKQYLINSQCCSLCQPGQKLVSDCTEFTETECLPCGESEFLDTWNRETHCHQHKYCDPNLGLRVQQKGTSETDTICTCEEGWHCTSEACESCVLHRSCSPGFGVKQIATGVSDTICEPCPVGFFSNVSSAFEKCHPWTSCETKDLVVQQAGTNKTDVVCGESWTMGPGESLGRWELKGEMRHTGTLDGKKGRGGSLGVWYHSSATYLGSLGKSLPLS
notes: For ELISA and FACS it was expressed non-fused with baculovirus, secreted and purified from the supernatant on a G28-5 column; also called CD40 NJ1 variant; CD40 variant NJ1
B1: the binding result was “binds”.

B2: CD40 NJ3 splice variant (receptor)
chain: EPPTACREKQYLINSQCCSLCQPGQKLVSDCTEFTETECLPCGESEFLDTWNRETHCHQHKYCDPNLGLRVQQKGTSETDTICTCEEGWHCTSEACESCVLHRSCSPGFGVKQIATGVSDTICEPCPVGFFSNVSSAFEKCHPWTSCETKDLVVQQAGTNKTDVVCGESWTMGPGESLGRSPGSAESPGGDPHHLRDPVCHPLGAGLYQKGGQEANQ
notes: For ELISA and FACS it was expressed non-fused with baculovirus, secreted and purified from the supernatant on a G28-5 column; also called CD40 NJ3 variant; CD40 variant NJ3
For B2, the binding result is recorded as “binds”.

Source of the values: patent publication US20050272050A1 (published 2005).
